Literature values as cited in US20260091141A1, “GENE EDITING METHODS, SYSTEMS, AND COMPOSITIONS FOR TREATING SPINAL MUSCULAR ATROPHY” (The Broad Institute, Inc., priority 2023, published 2026).

Test system: DNA
Conditions: SpCas9 mutation relative to SEQ ID NO: 209; UniProtKB Q99ZW2 entry

B1: 175-307 deletion: SpCas9 mutation relative to SEQ ID NO: 209 (protein)
chain: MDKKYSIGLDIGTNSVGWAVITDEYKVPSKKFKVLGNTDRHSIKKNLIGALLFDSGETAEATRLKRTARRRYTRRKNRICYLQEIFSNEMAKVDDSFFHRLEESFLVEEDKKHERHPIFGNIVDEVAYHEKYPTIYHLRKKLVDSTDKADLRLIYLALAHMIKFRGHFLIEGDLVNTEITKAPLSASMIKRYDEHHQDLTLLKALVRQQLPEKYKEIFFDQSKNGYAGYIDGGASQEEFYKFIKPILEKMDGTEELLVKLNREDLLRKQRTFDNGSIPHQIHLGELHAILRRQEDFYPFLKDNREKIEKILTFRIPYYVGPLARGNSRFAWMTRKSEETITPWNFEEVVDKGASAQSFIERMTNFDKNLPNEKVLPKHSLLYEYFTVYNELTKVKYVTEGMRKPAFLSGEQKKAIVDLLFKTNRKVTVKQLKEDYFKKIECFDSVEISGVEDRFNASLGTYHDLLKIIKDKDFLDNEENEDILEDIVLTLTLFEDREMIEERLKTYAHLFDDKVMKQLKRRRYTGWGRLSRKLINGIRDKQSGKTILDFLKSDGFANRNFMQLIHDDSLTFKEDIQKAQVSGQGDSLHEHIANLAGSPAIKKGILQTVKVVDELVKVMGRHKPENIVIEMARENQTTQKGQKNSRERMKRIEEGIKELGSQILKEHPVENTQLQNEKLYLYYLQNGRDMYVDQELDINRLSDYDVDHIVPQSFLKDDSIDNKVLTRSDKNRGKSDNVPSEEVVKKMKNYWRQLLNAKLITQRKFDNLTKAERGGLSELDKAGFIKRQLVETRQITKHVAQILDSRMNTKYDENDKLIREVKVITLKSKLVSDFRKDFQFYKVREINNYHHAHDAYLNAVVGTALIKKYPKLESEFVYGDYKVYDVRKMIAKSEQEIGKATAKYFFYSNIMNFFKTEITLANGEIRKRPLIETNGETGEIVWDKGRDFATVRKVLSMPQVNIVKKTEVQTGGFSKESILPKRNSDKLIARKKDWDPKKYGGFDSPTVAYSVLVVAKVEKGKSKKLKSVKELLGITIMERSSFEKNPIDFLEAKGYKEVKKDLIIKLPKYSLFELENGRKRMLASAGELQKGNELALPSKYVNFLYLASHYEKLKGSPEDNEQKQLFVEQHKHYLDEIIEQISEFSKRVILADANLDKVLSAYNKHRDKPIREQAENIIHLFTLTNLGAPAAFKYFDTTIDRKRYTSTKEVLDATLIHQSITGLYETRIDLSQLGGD
modifications: serotype M1; Streptococcus pyogenes
Function/Characteristic (as reported): About 50% decreased DNA cleavage
